# Data as given in patent US8859026B2, “Method for reducing methoxypyrazines in grapes and grape products” (Brock University, priority 2009, dated 2014).
# Where a chain is given by its changes, count along the chain named. Where two headings read alike, the source gives them in different places.
# T1: piglet OBP (Sus scrofa, UniProt P81245)
# T1 construct: made in house; host or cells: Pichia pastoris GS115 (pPIC9, alpha-mating factor secretion signal)
# T1 sequence (P81245 with tags, fused parts or gaps): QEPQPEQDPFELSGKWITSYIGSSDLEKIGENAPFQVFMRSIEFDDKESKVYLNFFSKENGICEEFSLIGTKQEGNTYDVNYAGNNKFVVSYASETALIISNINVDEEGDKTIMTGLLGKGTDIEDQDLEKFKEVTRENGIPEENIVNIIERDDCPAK
# B1: mouse MUPII: mouse major urinary protein isoform II (Genbank AJ309921, Uniprot P11589), recombinant from P. pastoris (protein, UniProt P11589 19-180, looked up)
# Major urinary protein 2: EEASSTGRNFNVEKINGEWHTIILASDKREKIEDNGNFRLFLEQIHVLEKSLVLKFHTVRDEECSELSMVADKTEKAGEYSVTYDGFNTFTIPKTDYDNFLMAHLINEKDGETFQLMGLYGREPDLSSDIKERFAKLCEEHGILRENIIDLSNANRCLQARE
# modifications: recombinant from Pichia pastoris
# B2: mouse MUPI: mouse major urinary protein I (Uniprot P11588), differs from MUPII by three amino acid residues (protein, UniProt P11588 19-180, looked up)
# Major urinary protein 1: B1 Major urinary protein 2 with K50N, K136Q, E140K
# B3: human OBPIIaα: human odorant binding protein IIa alpha (Genbank AJ251021, UniProt Q9NY56), recombinant from P. pastoris (protein, UniProt Q9NY56 16-170, looked up)
# Odorant-binding protein 2a: LSFTLEEEDITGTWYVKAMVVDKDFPEDRRPRKVSPVKVTALGGGNLEATFTFMREDRCIQKKILMRKTEEPGKFSAYGGRKLIYLQELPGTDDYVFYCKDQRRGGLRYMGKLVGRNPNTNLEALEEFKKLVQHKGLSEEDIFMPLQTGSCVLEH
# modifications: recombinant from Pichia pastoris
# What was measured:
# [1] = target: T1, piglet OBP; test: Competitive fluorescent binding assay: displacement of 1-AMA from piglet OBP by odorants IPMP and IBMP; design: species or system porcine
# Description: The interaction of odorants with AMA complex was examined by monitoring the decrease in fluorescence intensity of protein/1-AMA complex upon the addition of competitor compounds.
# In competitive binding assays, 1-AMA (10 μM) was equilibrated with protein (2 μM) at pH 7.2 50 mM sodium phosphate buffer and pH 3.0 50 mM citrate phosphate buffer, and titrated with increasing concentrations of odorants (0-100 μM) solubilized in 10% v/v methanol.
# The affinity of OBPs for odorants was estimated by plotting the decrease of intensity of 1-AMA fluorescence at the emission maximum, (22). Odorant concentrations causing fluorescence decay to half-maximal intensity (IC50 values) were determined from the plot of (I−Imin)/(I0−Imin) against the competitor concentration; I0 is the maximum of fluorescence intensity of the protein/1-AMA complex; I is the fluorescence intensity after addition of an aliquot of competitor, and Imin the fluorescence intensity at saturating concentration of the competitor.
# [2] = Protein-MP binding reaction, complex removed by 10 kDa cut-off PES membrane filtration, free IPMP by HS SPME GC/MS
# Description: (§1) The freeze dried preparations of pIOBP and mMUPII were resuspended in phosphate citrate buffers at pH 3.0, 3.5 or 4.0 or phosphate buffer at pH 7.2, to final concentrations between 40-50 μM. The protein solutions, in a 2 ml volume, were spiked with IBMP or IPMP at 300 ng/l and allowed to incubate in a glass vial for 2 h, at RT on a gel shaker. In binding reactions using bentonite to remove the protein-MP complex, the binding reactions were performed in pH 3.5 and pH 4 using bentonite (3 g/l) to remove the protein and protein-ligand complex. To remove any residual bentonite from the reaction, samples were also filtered through a 0.22 μm Durapore filter unit (Millipore). In another assay using a 10 kDa cutoff filter to remove the protein-MP complex, the binding reactions were performed in buffer at pH 3 and pH 7.2. The reactions were centrifuged through a 10 KDa molecular weight cut-off (10MWCO) Omega filter unit made of polyethersulfone (PALL Life Sciences) to separate the proteins and bound MP from the free MP fraction. The concentration of free (unbound) MP fraction was then determined using HS SPME GC/MS. The limit of quantification for the compound IBMP was determined to be 6 ng/L and for IPMP was 2 ng/L, based on 10 times signal/noise. The limit of detection for MPs in the present system is 1.8 ng/L for IBMP and 0.6 ng/L for IPMP as calculated based on 3 times the signal/noise ratio. The data has been reported to the limit of quantification in the figures.
# (§2) For the membrane filtration trials, the starting concentration of MPs in the reaction were tested, the free MPs after the 10MWCO filtration without addition of protein were tested, and the free MPs in solution after the protein binding reaction and filtration were tested.
# [3] = Protein-MP binding reaction, complex removed by 10 kDa cut-off PES membrane filtration, free IBMP by HS SPME GC/MS
# Description: as §1, §2
# [4] = Protein-MP binding reaction, complex removed by bentonite fining and 0.22 μm filtration, free IBMP by GC/MS; conditions: Chardonnay Juice at pH 3.5
# Description: as §1, with “The” for “The freeze dried preparations of pIOBP and mMUPII were resuspended in phosphate citrate buffers at pH 3.0, 3.5 or 4.0 or phosphate buffer at pH 7.2, to final concentrations between 40-50 μM. The”, “figures. […]” for “figures.”
# [5] = physiological pH, published values; read-out: apparent Kd for IBMP / MPs, literature; cited from earlier work
# [6] = pH of binding: 7.4; cited from earlier work
# [7] = Binding of human OBPIIaα to fluorescent probes 1,8 ANS and 1-AMA; conditions: pH 7.2 and 3.0
# Description: The excitation wavelength of 372 nm was used for ANS and fluorescence emission intensity was monitored at 475 nm. […] The excitation wavelength of 290 nm was used and fluorescence emission intensity was monitored at 490 nm.
# Fluorescence ligand binding experiments were performed on a Photon Technology International (London, Canada) Quanta Master Model QM2001 fluorometer at room temperature (19-20° C.), using 1 cm light path quartz cuvettes (Hellma). Slit width of 2 nm was used for excitation and emission for assaying a proteins except ratOBP1F, for which excitation and emission slit width of 6 nm was used.
# [8] = Intrinsic fluorescence of human OBPIIaα at pH 7.2 and pH 3.0; format: physicochemical; conditions: pH 3.0 vs pH 7.2
molecule,measurement,setting,value
"COc1nccnc1C(C)C [IPMP, 2-isopropyl-3-methoxypyrazine]",IC50,[1]; pH 3.0,5.98 µM
same,Kd,"[1]; pH 3.0, calculated from IC50, read-out: Kd for piglet OBP",2.34 µM
same,Kd,"[1]; pH 3, read-out: apparent Kd for pIOBP",2.1 µM
same,higher affinity for pIOBP at pH 3.0 compared with pH 7.2,[1]; pH 3.0 vs pH 7.2,about 2 fold
same,IC50,[1]; pH 7.2,32.8 µM
same,Kd,"[1]; pH 7.2, calculated from IC50, read-out: Kd for piglet OBP",4.46 µM
same,Kd,"[1]; pH 7.2, read-out: apparent Kd for pIOBP",4.5 µM
B1,IPMP concentration after protein treatment and 10 MWCO filtration,[2]; juice,4 ng/L
same,IPMP concentration after protein treatment and 10 MWCO filtration,[2]; pH 3.0 buffer,3 ng/L
same,IPMP concentration after protein treatment and 10 MWCO filtration,[2]; pH 7.2 buffer,3 ng/L
same,IBMP concentration after protein treatment and 10 MWCO filtration,"[3]; Chardonnay juice, limit of quantification",6 ng/L
same,IBMP concentration after protein treatment and 10 MWCO filtration,"[3]; pH 3.0 buffer, 300 ng/l spike, limit of quantification",6 ng/L
same,IBMP concentration after protein treatment and 10 MWCO filtration,"[3]; pH 7.2 buffer, 300 ng/l spike",11 ng/L
same,IBMP reduction by protein beyond bentonite and filter,[4],further reduced
same,Kd,[5],0.94 µM
B2,binding of methoxypyrazines,[6],binds both IPMP and IBMP
B3,binding to fluorescent probes,[7],shows binding
same,protein conformation on acidification (tryptophan emission maximum),[8],does not modify protein conformation
same,Kd,[5],0.9 to 1.1 µM
